Kd data for one molecule are collected here from paper PMC11528095, “PCDH10 is a neuronal receptor for western equine encephalitis virus” (Cell Research, 2024).

By Kd is commonly meant the free concentration of one partner at which half of the binding sites on the other are occupied at equilibrium, for simple one-to-one binding.

The target of the experiment is T1, His-tagged soluble human PCDH10 (human).
T1 construct: also called sohPCDH10; sohPCDH10-His
Briefly: BLI. To be noted: both partners purified.

B1: WEEV virus-like particles (spike E2-E1) (complex)
chain 1: SITDDFTLTSPYLGFCPYCRHSAPCFSPIKIENVWDESDDGSIRIQVSAQFGYNQAGTADVTKFRYMSFDHDHDIKEDSMDKIAISTSGPCRRLGHKGYFLLAQCPPGDSVTVSITSGASENSCTVEKKIRRKFVGREEYLFPPVHGKLVKCHVYDHLKETSAGYITMHRPGPHAYKSYLEEASGEVYIKPPSGKNVTYECKCGDYSTGIVSTRTKMNGCTKAKQCIAYKSDQTKWVFNSPDLIRHTDHSVQGKLHIPFRLTPTVCPVPLAHTPTVTKWFKGITLHLTATRPTLLTTRKLGLRADATAEWITGTTSRNFSVGREGLEYVWGNHEPVRVWAQESAPGDPHGWPHEIIIHYYHRHPVYTVIVLCGVALAILVGTASSAACIAKARRDCLTPYALAPNATVPTALAVLCCIRPTNA
chain 2: FEHATTVPNVPGIPYKALVERAGYAPLNLEITVVSSELTPSTNKEYVTCRFHTVIPSPQVKCCGSLECKASSKADYTCRVFGGVYPFMWGGAQCFCDSENTQLSEAYVEFAPDCTIDHAVALKVHTAALKVGLRIVYGNTTAHLDTFVNGVTPGSSRDLKVIAGPISAAFSPFDHKVVIRKGLVYNYDFPEYGAMKPGAFGDIQASSLDATDIVARTDIRLLKPSVKNIHVPYTQAVSGYEMWKNNSGRPLQETAPFGCKIEVEPLRASNCAYGHIPISIDIPDAAFVRSSESPTILEVSCTVADCIYSADFGGSLTLQYKADREGHCPVHSHSTTAVLKEATTHVTAVGSITLHFSTSSPQANFIVSLCGKKTTCNAECKPPADHIIGEPHKVDQEFQAAVSKTSWNWLLALFGGASSLIVVGLIVLVCSSMLINTRR
B1 displayed a Kd of 4.66 nM.
